{
  "source": "the nanobody polyreactivity screen of Harvey et al. (2022)",
  "data": [
    {"assay": "yeast display, Sf9 membrane polyspecificity reagent, FACS + sequencing; frameworks hold sequencing errors", "outline": "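Nanobodies came from a synthetic yeast display library in Saccharomyces cerevisiae BJ5465, induced with galactose for 36–48 hours and stained for 1 hour at 4 °C with 10% biotinylated, detergent-solubilized Sf9 membrane reagent. Cells were enriched on streptavidin microbeads and then FACS-sorted, with low and high (top ~1%) gates set on anti-HA fluorescence for expression and streptavidin fluorescence for reagent binding. Each polyreactivity label reflects the gate a clone came from. Genes were amplified by colony PCR, sequenced by MiSeq 2 × 250 and filtered by CDR length.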", "values": [
      {"sequence": "LVQLVESGGGLVQAGGSLRLSCAASGRIFPYYMGSYRQAPGKERELVAVKSSGDGTYYADSVKGRFTISRDNAKNTVYFQMNRLKPEDTAVYYCAADAPREYVDHYKYDDDYWGQGTQVTVSS", "polyreactivity (PSR sort gate)": "low polyreactivity"},
      {"sequence": "LVQLVESGGGLVQAGGSLRLSCAASGRTFDTYVMGWYSQAPGKERELVAAITTSGTSTYADSVKGRFTISRDNAKNTVYLQMNSLKPEDTAVYYCAADGPVYYSYVDWISFNEEYWGQGTQVTVSS", "polyreactivity (PSR sort gate)": "low polyreactivity"},
      {"sequence": "LVQLVESGGGVVQAGGSLRLSSAASGSIFRNNTMGWYRQAPGKERELVAAISGRGTRTSYADSVKGRFTISRDNAKNTVYLQMNSLKPEDTAVYYCAARSWYLYYWGQGTQVTVSS", "polyreactivity (PSR sort gate)": "low polyreactivity"},
      {"sequence": "PVLLVECGGALVQAGGSLRLTSAASGRIIKLYAMGWYRQAPGKVREFVAALTRSGARTYYADSVKGRFTISRDNAKNTVYFQMYSMKPEDSAVYSCAAYDTYDWYDYWGQGTQVTVSS", "polyreactivity (PSR sort gate)": "high polyreactivity"},
      {"sequence": "PVQHVESGGGLVQAGGSLRLSCAASGSIFVWYAMGWYRQAPGKERELVAAITINCGSTYYADSVKGRFTISRDTAKNIVYLQMNSLKPEAKAVYYCAADYYTRDRYEFDSWGQGTQVTVSS", "polyreactivity (PSR sort gate)": "low polyreactivity"},
      {"sequence": "PVQLQESGGGLVQAGGSLRLSCAARGSIFKVVDMGLYRQAPAKEREFVATIGEGGNTYYADSVKGRFTISRDNAKNTVYLQMNSLKPEDTAVYFSAVVLGTSYRYTYWGQGTQVTVSS", "polyreactivity (PSR sort gate)": "low polyreactivity"},
      {"sequence": "PVQLQESGGGLVQAGGSLRLSCAASGNIFDADIMGWNRQAPGKESDLVACIADGGSTNYADSVKGRFTISRDNAKNTVYLQMNSLKPEDTAVHYCAAIAYPDIPTCFDYDSDYFFRGQGTQVTVSS", "polyreactivity (PSR sort gate)": "low polyreactivity"},
      {"sequence": "PVQLVESGGGIVQAGGSLRLSCAASGRTFRYNPMGWSRQAPGKERELVAAITYSGGSTYYADSVKGRFTISRDNEKNTVYLQMNSMKPEETAVYYCAAGWRRFDYWGQGTQVTVSS", "polyreactivity (PSR sort gate)": "high polyreactivity"},
      {"sequence": "PVQLVESGGGLVQAGGSLRLSCAACGRIFRYYAMGWYRQAPGKERELVAAISRSGGRTYYADSVKGRFTISRDNAKNTVYLEMNSLKPEDTAVYYCNALYYKYYPSRYDYWGLGTQVTVSS", "polyreactivity (PSR sort gate)": "high polyreactivity"},
      {"sequence": "PVQLVESGGGLVQAGGSLRLSCAASGFIFDSYPMGWYRQAPGKERELVAAISYSAGSTSYADSVKGRFTISRDNAKNTVYLQMKSLKPEDTAVYYCNARYYPLYSNSYDSWGQGTQVTVSS", "polyreactivity (PSR sort gate)": "low polyreactivity"},
      {"sequence": "PVQLVESGGGLVQAGGSLRLSCAASGFIFYLYAMGWYRQAPGKERELVASINVSGASTRYADSVKGRFTISRDNSKNTVYLQMKSLKPEDTAVYYCAAAITELYFEAYYYWGQGTQVTVSS", "polyreactivity (PSR sort gate)": "low polyreactivity"},
      {"sequence": "PVQLVESGGGLVQAGGSLRLSCAASGFIFYYNTMGSYRQAPGKERELVAAINSGGSTYYADSVKGRFTISRDNAKNTVYLQMNSLKPEDTAVYYCAKRYAVSSGYYYWGQGTQVTVSS", "polyreactivity (PSR sort gate)": "high polyreactivity"},
      {"sequence": "PVQLVESGGGLVQAGGSLRLSCAASGFIYPRYAMGWYRQAPGKEREVVAAISYSGGSTYYADSVKGRFTISRDNAKNTVYLQMNSLKPEDTAVYYCAARLFKDSWMDYWGQGTQVTVSS", "polyreactivity (PSR sort gate)": "high polyreactivity"},
      {"sequence": "PVQLVESGGGLVQAGGSLRLSCAASGFTFDRYAMGWYRQAPGKERELVAAISRSGATTYYADSVKGRFTISRDNAKNTVYLQMNSLKPEDTAVYYCNADDVWYEYDYWGQGTQVTVSS", "polyreactivity (PSR sort gate)": "high polyreactivity"},
      {"sequence": "PVQLVESGGGLVQAGGSLRLSCAASGFTFYSYAMGWYRQAPGKEREFVAAGSTYYADSVKGRFTISRDNAKNTVYLQMNSLKPEDTAVYYCAADPWIYVQSYGFWGQGTQVTVSS", "polyreactivity (PSR sort gate)": "low polyreactivity"},
      {"sequence": "PVQLVESGGGLVQAGGSLRLSCAASGIIFSDYAMGWYRQGPGKERELVAAITGGVSKYYADSVKGRFTISRDNAKNTVYLQMNSLKPEDTAVYYCNTDAWLETPVSGYSWGQGTQVTVSS", "polyreactivity (PSR sort gate)": "low polyreactivity"},
      {"sequence": "PVQLVESGGGLVQAGGSLRLSCAASGRIFVYNVMGWSRQATGKERELVAASRWSGGSTYADSVNGRYTISRDQAKNPVYLQIHSLKPEDTADYYCAARHYRRGDSWAQGTQVTVSS", "polyreactivity (PSR sort gate)": "high polyreactivity"}
    ]}
  ]
}
